From patent US20040102611

T1: DBF4 (human DBF4/ASK1), Q9UBU7
T1 chain: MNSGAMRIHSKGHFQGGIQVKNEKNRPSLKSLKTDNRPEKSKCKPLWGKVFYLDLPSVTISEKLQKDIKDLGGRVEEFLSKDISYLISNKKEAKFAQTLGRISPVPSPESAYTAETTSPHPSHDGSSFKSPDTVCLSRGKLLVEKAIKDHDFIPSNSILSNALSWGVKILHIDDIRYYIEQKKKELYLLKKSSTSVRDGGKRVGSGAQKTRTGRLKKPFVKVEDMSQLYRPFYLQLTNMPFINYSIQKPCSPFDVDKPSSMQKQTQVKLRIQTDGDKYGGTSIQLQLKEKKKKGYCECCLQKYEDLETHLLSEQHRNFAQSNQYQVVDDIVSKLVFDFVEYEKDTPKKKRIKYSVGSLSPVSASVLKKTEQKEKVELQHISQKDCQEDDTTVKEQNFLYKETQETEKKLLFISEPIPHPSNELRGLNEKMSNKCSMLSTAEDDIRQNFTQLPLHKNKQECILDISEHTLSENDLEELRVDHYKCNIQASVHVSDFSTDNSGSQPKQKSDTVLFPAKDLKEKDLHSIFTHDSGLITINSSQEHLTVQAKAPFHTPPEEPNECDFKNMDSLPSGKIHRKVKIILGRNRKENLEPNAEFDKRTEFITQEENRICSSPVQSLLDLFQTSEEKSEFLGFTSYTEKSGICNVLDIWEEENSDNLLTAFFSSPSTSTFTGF

T2: HA-DRF1 (DRF1 with N-terminal HA epitope, expressed from pCDNAHAdrf1)
T2 chain: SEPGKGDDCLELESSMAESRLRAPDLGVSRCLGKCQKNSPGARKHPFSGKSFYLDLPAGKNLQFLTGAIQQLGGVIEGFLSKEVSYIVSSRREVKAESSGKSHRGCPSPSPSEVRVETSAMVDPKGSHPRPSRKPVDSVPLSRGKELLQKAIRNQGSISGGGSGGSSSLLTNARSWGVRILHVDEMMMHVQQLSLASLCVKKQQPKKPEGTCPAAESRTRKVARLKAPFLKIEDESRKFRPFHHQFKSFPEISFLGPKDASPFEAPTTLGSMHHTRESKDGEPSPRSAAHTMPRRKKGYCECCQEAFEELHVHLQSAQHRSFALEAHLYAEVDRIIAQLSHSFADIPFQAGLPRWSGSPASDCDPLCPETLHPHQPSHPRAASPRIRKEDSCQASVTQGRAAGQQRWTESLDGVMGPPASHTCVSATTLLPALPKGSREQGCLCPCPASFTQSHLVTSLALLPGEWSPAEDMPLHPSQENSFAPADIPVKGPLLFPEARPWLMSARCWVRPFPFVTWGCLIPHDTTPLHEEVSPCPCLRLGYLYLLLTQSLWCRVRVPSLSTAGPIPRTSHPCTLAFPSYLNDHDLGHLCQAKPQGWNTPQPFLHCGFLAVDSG


Assays:
[1] = biological target: T1, DBF4 (human DBF4/ASK1), Q9UBU7
[2] = biological target: T2, HA-DRF1 (DRF1 with N-terminal HA …)

Protein	phosphorylation of MCM2 (1-285) by immunoprecipitated complexes (32P kinase assay, autoradiography) [1]	phosphorylation of DRF1 (32P, FIG. 3 panel A) [2]	phosphorylation of MCM2 (1-285) by immunoprecipitated complexes (32P kinase assay, autoradiography) [2]	phosphorylation of MCM2 by CDC7 [2]
FLAG-tagged human CDC7 kinase, wild type (pCdc7FLAG-tagged, in pCMV-Tag2) (protein) MEASLGIQMDEPMAFSPQRDRFQAEGSLKKNEQNFKLAGVKKDIEKLYEAVPQLSNVFKIEDKIGEGTFSSVYLATAQLQVGPEEKIALKHLIPTSHPIRIAAELQCLTVAGGQDNVMGVKYCFRKNDHVVIAMPYLEHESFLDILNSLSFQEVREYMLNLFKALKRIHQFGIVHRDVKPSNFLYNRRLKKYALVDFGLAQGTHDTKIELLKFVQSEAQQERCSQNKSHIITGNKIPLSGPVPKELDQQSTTKASVKRPYTNAQIQIKQGKDGKEGSVGLSVQRSVFGERNFNIHSSISHESPAVKLMKQSKTVDVLSRKLATKKKAISTKVMNSAVMRKTASSCPASLTCDCYATDKVCSICLSRRQQVAPRAGTPGFRAPEVLTKCPNQTTAIDMWSAGVIFLSLLSGRYPFYKASDDLTALAQIMTIRGSRETIQAAKTFGKSILCSKEVPAQDLRKLCERLRGMDSSTPKLTSDIQGHASHQPAISEKTDHKASCLVQTPPGQYSGNSFKKGDSNSCEHCFDEYNTNLEGWNEVPDEAYDLLDKLLDLNPASRITAEEALLHPFFKDMSL	DRF1 is a regulatory subunit of CDC7 able to induce its kinase activity in a way comparable to DBF4 (lane 5)	DRF1, as DBF4, was detected as a phosphoprotein when expressed with wild type CDC7 but not with the kinase negative	In the presence of HA-DRF1 and wild-type CDC7, efficient phosphorylation of MCM2 (1-285) (above the background shown in lane 4, panel B) was observed	in the presence of DRF1, CDC7 is able to phosphorylate its physiological substrates MCM2
FLAG-tagged human CDC7 kinase, kinase negative form K90R (pCdc7FLAG K90R) (protein) MEASLGIQMDEPMAFSPQRDRFQAEGSLKKNEQNFKLAGVKKDIEKLYEAVPQLSNVFKIEDKIGEGTFSSVYLATAQLQVGPEEKIALRHLIPTSHPIRIAAELQCLTVAGGQDNVMGVKYCFRKNDHVVIAMPYLEHESFLDILNSLSFQEVREYMLNLFKALKRIHQFGIVHRDVKPSNFLYNRRLKKYALVDFGLAQGTHDTKIELLKFVQSEAQQERCSQNKSHIITGNKIPLSGPVPKELDQQSTTKASVKRPYTNAQIQIKQGKDGKEGSVGLSVQRSVFGERNFNIHSSISHESPAVKLMKQSKTVDVLSRKLATKKKAISTKVMNSAVMRKTASSCPASLTCDCYATDKVCSICLSRRQQVAPRAGTPGFRAPEVLTKCPNQTTAIDMWSAGVIFLSLLSGRYPFYKASDDLTALAQIMTIRGSRETIQAAKTFGKSILCSKEVPAQDLRKLCERLRGMDSSTPKLTSDIQGHASHQPAISEKTDHKASCLVQTPPGQYSGNSFKKGDSNSCEHCFDEYNTNLEGWNEVPDEAYDLLDKLLDLNPASRITAEEALLHPFFKDMSL			it can be abolished by overexpression of the mutant K90R (lanes 1 and 6)	
